In the supplement of paper PMC10567573:

B1: ALDH8A1 (parent)
chain: FTGSQPTAERITQLSAPHCKKLSL

Variants of: B1
Test: protein stability index of a GFP-peptide fusion (GPS, HEK-293T) (PSI 1-6); higher = more stable
Conditions: c terminus: a fixed tail appended
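Also: lentivirally expressed fusions sorted by FACS into six bins by GFP to DsRed ratio, PSI derived from sequencing read proportions per bin multiplied by bin number.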

Point of comparison: S23W, protein stability index 1.85. Against it:
- K20L — lower, 1.84
- K20D — higher, 2.57
- K20R — lower, 1.78
- K20W — lower, 1.61
- K20C — higher, 2.09
- K20Y — higher, 2.5
- K20M — lower, 1.84
- K20P — higher, 2.3
- K21Q — higher, 2.23
- K21I — lower, 1.71
- K21T — higher, 2.06
- K21V — higher, 2.22
- K21E — higher, 2.65
- K21P — higher, 2.32
- K21F — higher, 1.9
- K21C — lower, 1.59
- K21M — higher, 2.45
- Q5V — higher, 2.38
- Q5G — higher, 2.15
- Q5E — higher, 2.57
- H18F — higher, 2.25
- H18M — higher, 2.24
- H18S — higher, 2.74
- H18I — higher, 2.55
- S23P — higher, 2.33
- S23D — higher, 2.69
- S23Y — higher, 2.66
- S23R — lower, 1.79
- S23Q — higher, 2.35
- S23C — lower, 1.78
- S23L — lower, 1.81
- T12P — higher, 2.32
- T12V — higher, 2.15
- T12H — lower, 1.84
- T12R — higher, 2.89
- T12D — higher, 2.32
- T12K — higher, 2.3
- R10K — lower, 1.81
- R10I — higher, 1.92
- R10L — higher, 2.11
- R10N — higher, 2.6
- R10M — higher, 1.97
- R10W — higher, 1.93
- R10G — higher, 2.28
- C19G — higher, 2.58
- C19L — higher, 1.91
- C19H — higher, 2.33
- C19R — higher, 2.45
- C19T — higher, 2.45
- C19K — higher, 2.75
- C19Y — lower, 1.68
- S15G — higher, 2.5
- S15H — the same, 1.85
- S15M — higher, 2.13
- S15C — higher, 2.34
- S15L — higher, 2.87
- S4R — lower, 1.62
- S4N — higher, 2.21
- S4K — higher, 2.6
- S4V — higher, 2.75
- S4Q — higher, 2.02
- S4E — higher, 3.18
- L24I — higher, 2.04
- L24P — higher, 2.9
- L24A — higher, 2.6
- L24V — higher, 2.38
- L24G — higher, 2.67
- L24E — higher, 2.96
- L24W — higher, 1.93
- F1G — higher, 4.34
- F1H — higher, 4.18
- F1V — higher, 3.82
- F1K — higher, 3.96
- F1N — higher, 4.34
- F1L — higher, 3.65
- F1P — higher, 4.14
- F1E — higher, 4.26
- T2Q — higher, 3.24
- T2F — higher, 2.89
- T2A — higher, 2.38
- T2H — higher, 2.2
- A16V — higher, 2.27
